# Paper PMC9482650, “Quantitative fragmentomics allow affinity mapping of interactomes” (Nature Communications, 2022)
# T1: DLG3_3, Q92796
# T1 sequence (Q92796 374-475, limits assumed, looked up): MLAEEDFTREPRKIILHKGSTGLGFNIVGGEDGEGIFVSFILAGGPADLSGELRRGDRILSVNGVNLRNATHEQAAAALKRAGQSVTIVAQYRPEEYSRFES
# T2: PDZD2_2, O15018
# T2 sequence (O15018 329-429, limits assumed, looked up): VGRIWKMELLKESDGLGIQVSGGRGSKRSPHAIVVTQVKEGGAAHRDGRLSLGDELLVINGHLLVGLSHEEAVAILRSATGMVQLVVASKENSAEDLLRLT
# T3: DFNB31_2, Q9P202
# T3 sequence (Q9P202 274-371, limits assumed, looked up): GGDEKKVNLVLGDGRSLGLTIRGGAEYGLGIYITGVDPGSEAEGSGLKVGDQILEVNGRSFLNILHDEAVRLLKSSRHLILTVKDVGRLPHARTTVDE
# T4: GRIP1_7, Q9Y3R0
# T4 sequence (Q9Y3R0 999-1096, limits assumed, looked up): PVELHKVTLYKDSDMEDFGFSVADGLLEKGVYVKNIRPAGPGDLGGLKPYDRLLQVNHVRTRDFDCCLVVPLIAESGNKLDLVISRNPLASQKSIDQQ
# T5: GRIP1_4, Q9Y3R0
# T5 sequence (Q9Y3R0 467-571, limits assumed, looked up): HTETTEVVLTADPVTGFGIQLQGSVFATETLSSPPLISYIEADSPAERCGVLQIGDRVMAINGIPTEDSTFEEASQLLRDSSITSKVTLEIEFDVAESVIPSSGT
# T6: MPP7, Q5T2T1
# T6 sequence (Q5T2T1 134-230, limits assumed, looked up): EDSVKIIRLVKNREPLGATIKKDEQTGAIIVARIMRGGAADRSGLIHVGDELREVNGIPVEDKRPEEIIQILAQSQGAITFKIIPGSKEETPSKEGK
# T7: RADIL, Q96JH8
# T7 sequence (Q96JH8 971-1071, limits assumed, looked up): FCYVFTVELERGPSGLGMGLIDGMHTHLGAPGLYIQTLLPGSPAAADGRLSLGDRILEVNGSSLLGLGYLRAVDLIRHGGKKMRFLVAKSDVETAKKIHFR
# T8: SNTG2, Q9NY99
# T8 sequence (Q9NY99 68-166, limits assumed, looked up): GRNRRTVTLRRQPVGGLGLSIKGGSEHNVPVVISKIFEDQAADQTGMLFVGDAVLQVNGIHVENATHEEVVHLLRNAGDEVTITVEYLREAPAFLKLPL
# T9: APBA1_2, Q02410
# T9 sequence (Q02410 742-832, limits assumed, looked up): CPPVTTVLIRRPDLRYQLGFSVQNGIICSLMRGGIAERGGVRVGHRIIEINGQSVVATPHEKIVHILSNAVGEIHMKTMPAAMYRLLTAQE
# T10: APBA1_1, Q02410
# T10 sequence (Q02410 651-752, limits assumed, looked up): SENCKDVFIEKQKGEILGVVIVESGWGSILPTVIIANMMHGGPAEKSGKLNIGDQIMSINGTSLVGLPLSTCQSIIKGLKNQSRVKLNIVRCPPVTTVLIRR
# T11: NHERF3_4, Q5T2W1
# T11 sequence (Q5T2W1 373-468, limits assumed, looked up): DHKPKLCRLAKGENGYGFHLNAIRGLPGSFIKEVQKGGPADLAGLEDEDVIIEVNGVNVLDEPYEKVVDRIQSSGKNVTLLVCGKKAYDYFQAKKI
# Key:
# Experiment in all cases: holdup assay
# Set-up in all cases: key: below the threshold = too weak to quantify, mostly under pKd 3.1 to 4
# Details in all cases: plain residues with an end cap or a label only (N-terminal biotin on a linker: ado-ado)
# FRMPD2_3, Q68DX3 = target: FRMPD2_3, Q68DX3
# DLG3_3, Q92796 = target: T1, DLG3_3, Q92796
# PDZD2_2, O15018 = target: T2, PDZD2_2, O15018
# DFNB31_2, Q9P202 = target: T3, DFNB31_2, Q9P202
# GRIP1_7, Q9Y3R0 = target: T4, GRIP1_7, Q9Y3R0
# AHNAK1, Q09666 = target: AHNAK1, Q09666
# Inadl_3, Q8NI35 = target: Inadl_3, Q8NI35
# GRIP1_4, Q9Y3R0 = target: T5, GRIP1_4, Q9Y3R0
# Inadl_6, Q8NI35 = target: Inadl_6, Q8NI35
# MPP7, Q5T2T1 = target: T6, MPP7, Q5T2T1
# MAGI3_2, Q5TCQ9 = target: MAGI3_2, Q5TCQ9
# RADIL, Q96JH8 = target: T7, RADIL, Q96JH8
# TJP1_3, Q07157 = target: TJP1_3, Q07157
# SNTG2, Q9NY99 = target: T8, SNTG2, Q9NY99
# SNX27, Q96L92 = target: SNX27, Q96L92
# Inadl_2, Q8NI35 = target: Inadl_2, Q8NI35
# SCRIB_2, Q14160 = target: SCRIB_2, Q14160
# TJP1_2, Q07157 = target: TJP1_2, Q07157
# Inadl_5, Q8NI35 = target: Inadl_5, Q8NI35
# LNX1_3, Q8TBB1 = target: LNX1_3, Q8TBB1
# HTRA2, O43464 = target: HTRA2, O43464
# LNX1_2, Q8TBB1 = target: LNX1_2, Q8TBB1
# DLG1_3, Q12959 = target: DLG1_3, Q12959
# APBA1_2, Q02410 = target: T9, APBA1_2, Q02410
# APBA1_1, Q02410 = target: T10, APBA1_1, Q02410
# DLG1_2, Q12959 = target: DLG1_2, Q12959
# NHERF3_4, Q5T2W1 = target: T11, NHERF3_4, Q5T2W1
# Chain of HTRA2, O43464 (O43464 355-458): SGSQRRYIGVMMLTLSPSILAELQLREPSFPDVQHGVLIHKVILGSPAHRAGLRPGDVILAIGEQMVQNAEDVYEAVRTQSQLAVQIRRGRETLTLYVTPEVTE
# Chain of MAGI3_2, Q5TCQ9 (Q5TCQ9 398-503): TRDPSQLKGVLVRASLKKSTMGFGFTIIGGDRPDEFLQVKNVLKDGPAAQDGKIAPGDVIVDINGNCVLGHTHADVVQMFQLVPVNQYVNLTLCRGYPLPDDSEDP
# Chain of Inadl_6, Q8NI35 (Q8NI35 1058-1167): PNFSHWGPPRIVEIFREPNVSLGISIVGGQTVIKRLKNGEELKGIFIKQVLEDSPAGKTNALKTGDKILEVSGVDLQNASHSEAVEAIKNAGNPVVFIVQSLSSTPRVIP
# Chain of TJP1_2, Q07157 (Q07157 181-274): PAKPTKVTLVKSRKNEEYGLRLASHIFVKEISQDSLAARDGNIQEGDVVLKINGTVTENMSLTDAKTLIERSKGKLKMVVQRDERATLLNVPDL
# Chain of AHNAK1, Q09666 (Q09666 4-100): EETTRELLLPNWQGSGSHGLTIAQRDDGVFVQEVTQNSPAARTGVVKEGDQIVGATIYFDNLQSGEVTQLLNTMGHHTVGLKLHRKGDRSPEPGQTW
# Chain of LNX1_2, Q8TBB1 (Q8TBB1 371-470): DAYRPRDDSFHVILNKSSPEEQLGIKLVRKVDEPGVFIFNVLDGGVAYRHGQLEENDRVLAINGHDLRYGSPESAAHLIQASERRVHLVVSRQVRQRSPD
# Chain of TJP1_3, Q07157 (Q07157 416-512): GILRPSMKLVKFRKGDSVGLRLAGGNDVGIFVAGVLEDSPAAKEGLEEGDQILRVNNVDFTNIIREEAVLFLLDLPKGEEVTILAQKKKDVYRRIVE
# Chain of Inadl_3, Q8NI35 (Q8NI35 359-469): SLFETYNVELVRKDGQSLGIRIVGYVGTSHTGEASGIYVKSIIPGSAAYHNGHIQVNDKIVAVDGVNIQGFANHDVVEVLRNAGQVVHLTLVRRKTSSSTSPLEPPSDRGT
# Chain of LNX1_3, Q8TBB1 (Q8TBB1 500-596): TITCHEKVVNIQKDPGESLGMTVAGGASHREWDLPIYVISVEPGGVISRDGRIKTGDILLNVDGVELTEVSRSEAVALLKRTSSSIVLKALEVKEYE
# Chain of DLG1_2, Q12959 (Q12959 314-412): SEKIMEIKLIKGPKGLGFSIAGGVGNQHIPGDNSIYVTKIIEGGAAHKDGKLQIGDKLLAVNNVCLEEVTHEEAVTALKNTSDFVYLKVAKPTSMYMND
# Chain of SCRIB_2, Q14160 (Q14160 857-960): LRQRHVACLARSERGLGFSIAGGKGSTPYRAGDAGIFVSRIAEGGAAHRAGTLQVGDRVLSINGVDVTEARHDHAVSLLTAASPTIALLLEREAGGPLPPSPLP
# Chain of Inadl_5, Q8NI35 (Q8NI35 673-780): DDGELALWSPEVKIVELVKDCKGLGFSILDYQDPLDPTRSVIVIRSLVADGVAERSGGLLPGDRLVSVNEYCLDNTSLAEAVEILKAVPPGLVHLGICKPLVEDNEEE
# Chain of Inadl_2, Q8NI35 (Q8NI35 238-335): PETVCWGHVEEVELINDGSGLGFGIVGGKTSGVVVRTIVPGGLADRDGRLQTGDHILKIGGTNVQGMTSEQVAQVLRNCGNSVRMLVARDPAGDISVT
# Chain of DLG1_3, Q12959 (Q12959 457-571): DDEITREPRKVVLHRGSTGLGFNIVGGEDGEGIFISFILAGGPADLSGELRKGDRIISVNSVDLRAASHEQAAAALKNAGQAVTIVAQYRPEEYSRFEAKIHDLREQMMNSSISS
# Chain of FRMPD2_3, Q68DX3 (Q68DX3 1073-1166): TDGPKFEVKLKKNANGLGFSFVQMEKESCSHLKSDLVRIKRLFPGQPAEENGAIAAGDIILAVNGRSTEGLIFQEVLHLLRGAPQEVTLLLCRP
Binder,"pKd (FRMPD2_3, Q68DX3)","pKd (DLG3_3, Q92796)","pKd (PDZD2_2, O15018)","pKd (DFNB31_2, Q9P202)","pKd (GRIP1_7, Q9Y3R0)","pKd (AHNAK1, Q09666)","pKd (Inadl_3, Q8NI35)","pKd (GRIP1_4, Q9Y3R0)","pKd (Inadl_6, Q8NI35)","pKd (MPP7, Q5T2T1)","pKd (MAGI3_2, Q5TCQ9)","pKd (RADIL, Q96JH8)","pKd (TJP1_3, Q07157)","pKd (SNTG2, Q9NY99)","pKd (SNX27, Q96L92)","pKd (Inadl_2, Q8NI35)","pKd (SCRIB_2, Q14160)","pKd (TJP1_2, Q07157)","pKd (Inadl_5, Q8NI35)","pKd (LNX1_3, Q8TBB1)",further results
"YPKQMPLSQV [FZD8, Q9H461]",below the threshold,below the threshold,4.23,below the threshold,below the threshold,below the threshold,below the threshold,below the threshold,below the threshold,below the threshold,4.44,3.7,below the threshold,below the threshold,3.97,below the threshold,below the threshold,below the threshold,below the threshold,below the threshold,"pKd (HTRA2, O43464): below the threshold; pKd (LNX1_2, Q8TBB1): below the threshold; pKd (DLG1_3, Q12959): 3.64; pKd (APBA1_2, Q02410): 3.81; pKd (APBA1_1, Q02410): below the threshold; pKd (DLG1_2, Q12959): below the threshold; pKd (NHERF3_4, Q5T2W1): below the threshold"
"QNRIITKTDV [SMCHD1, A6NHR9]",below the threshold,below the threshold,4.4,below the threshold,below the threshold,below the threshold,below the threshold,below the threshold,below the threshold,below the threshold,4.15,3.64,below the threshold,below the threshold,3.84,below the threshold,below the threshold,below the threshold,below the threshold,below the threshold,"pKd (HTRA2, O43464): below the threshold; pKd (LNX1_2, Q8TBB1): below the threshold; pKd (DLG1_3, Q12959): below the threshold; pKd (APBA1_2, Q02410): 3.9; pKd (APBA1_1, Q02410): below the threshold; pKd (DLG1_2, Q12959): 4.23; pKd (NHERF3_4, Q5T2W1): below the threshold"
"GDGLDDEIAV [NOS1AP, O75052]",3.82,below the threshold,3.55,below the threshold,below the threshold,below the threshold,below the threshold,below the threshold,below the threshold,below the threshold,3.98,below the threshold,below the threshold,below the threshold,4.19,3.99,below the threshold,below the threshold,below the threshold,below the threshold,"pKd (HTRA2, O43464): below the threshold; pKd (LNX1_2, Q8TBB1): 3.68; pKd (DLG1_3, Q12959): below the threshold; pKd (APBA1_2, Q02410): below the threshold; pKd (APBA1_1, Q02410): below the threshold; pKd (DLG1_2, Q12959): below the threshold; pKd (NHERF3_4, Q5T2W1): below the threshold"
"AEDEEIQTKM [UNC93A, Q86WB7]",below the threshold,below the threshold,below the threshold,below the threshold,below the threshold,below the threshold,below the threshold,below the threshold,below the threshold,below the threshold,below the threshold,below the threshold,below the threshold,below the threshold,4.5,below the threshold,below the threshold,below the threshold,below the threshold,below the threshold,"pKd (HTRA2, O43464): below the threshold; pKd (LNX1_2, Q8TBB1): below the threshold; pKd (DLG1_3, Q12959): below the threshold; pKd (APBA1_2, Q02410): below the threshold; pKd (APBA1_1, Q02410): below the threshold; pKd (DLG1_2, Q12959): below the threshold; pKd (NHERF3_4, Q5T2W1): 4.52"
"SVISRREWYV [NECTIN3, Q9NQS3]",4.44,3.71,5.08,below the threshold,5.11,below the threshold,5.03,below the threshold,below the threshold,4.93,5.74,5.27,3.67,below the threshold,below the threshold,4.91,below the threshold,3.82,5.43,4.81,"pKd (HTRA2, O43464): 4.6; pKd (LNX1_2, Q8TBB1): 4.59; pKd (DLG1_3, Q12959): below the threshold; pKd (APBA1_2, Q02410): 3.85; pKd (APBA1_1, Q02410): below the threshold; pKd (DLG1_2, Q12959): 3.52; pKd (NHERF3_4, Q5T2W1): below the threshold"
